Consider 35 variants from the Human Domainome abundance scans (Beltran et al. 2025).

± gives the uncertainty stated by the source.

B1: Zinc finger MYM-type protein 3, residues 589 to 668; numbered along this chain, Q14202 (parent)
chain: LSCHYCHSLFSGKPEVLDWQDQVFQFCCRDCCEDFKRLRGVVSQCEHCRQEKLLHEKLRFSGVEKSFCSEGCVLLYKQDF

In this data set the parent is B1. Description: abundance fitness (aPCA) (normalised: wild type 0, dead -1); higher = more abundant; growth selection in yeast, the domain comes from the species named. The settings on record: Homo sapiens.
For LSCHYCVSLFSGKPEVLDWQDQVFQFCCRDCCEDFKRLRGVVSQCEHCRQEKLLHEKLRFSGVEKSFCSEGCVLLYKQDF, the abundance fitness is -0.145 ± 0.05. To LSCHYCHSLFSGKPEVLDWQDQVFQFCCRDCCEDFKRLRGVVSQCEHCRQEKLLHEKLRFSGVEKSFCSEGCVLLYKQDV belongs 0.281 ± 0.094; to LSCHYCHSLFSGKPEVLDWQDQVFQFCCRDCCEDFKRLRGVVSQCEHCRQEKLLHEKWRFSGVEKSFCSEGCVLLYKQDF, -0.23 ± 0.14; to LSCHYCHSLFSGKPEVLDWQDQVFQFCCRDCCEDFKRLRGVVSQCEHCRQEKLLHEKERFSGVEKSFCSEGCVLLYKQDF, 0.094 ± 0.15. LSCHYCHSLFSGAPEVLDWQDQVFQFCCRDCCEDFKRLRGVVSQCEHCRQEKLLHEKLRFSGVEKSFCSEGCVLLYKQDF: the abundance fitness is -0.037 ± 0.051. To LSCHYCHSLFSGKPEVLDWQDQYFQFCCRDCCEDFKRLRGVVSQCEHCRQEKLLHEKLRFSGVEKSFCSEGCVLLYKQDF belongs -0.164 ± 0.073; to LSCHYCHSLFSGKPEVLDWQDMVFQFCCRDCCEDFKRLRGVVSQCEHCRQEKLLHEKLRFSGVEKSFCSEGCVLLYKQDF, 0.309 ± 0.054; to LSCHYCHSLFSGKPEVLDWQDQVFQFCCRDCCEDFKRLRGVVSQYEHCRQEKLLHEKLRFSGVEKSFCSEGCVLLYKQDF, -1.18 ± 0.4. In the case of LSCHYCHSLFSGKPEVLDWQDQVFQFCCRDCCEDFKRLRGVVSQCEHCRQEKLLHEKLRFSGVEKSFCSEGCVLDYKQDF it was 0.492 ± 0.17; in that of LSCHYCHSLFSGKPEVLDWQDQVFQFCCRDCCEDFKRLRGVVSQCEHCRQEKLLHEKLRFSGVEKSFCSEGCVLLYKRDF, 0.113 ± 0.076; in that of LSCHYCHSLFSGKPEVLDWQDQVFQFCCRDCCEDFKRLRGVVSQCEHCRQEKLLHEKLRFSGVEKEFCSEGCVLLYKQDF, -0.473 ± 0.18. To LSCHYCHSLFSGKPEVLGWQDQVFQFCCRDCCEDFKRLRGVVSQCEHCRQEKLLHEKLRFSGVEKSFCSEGCVLLYKQDF belongs -0.083 ± 0.051; to LSCHYCHSLFSGKPEVLDWQDQVFQFCCRDCCEDFKQLRGVVSQCEHCRQEKLLHEKLRFSGVEKSFCSEGCVLLYKQDF, 0.254 ± 0.12. For LSCHYCHSLFSGKPEVLDWQDQVFQFCCRDCCEDFKRLRGVVSQCEHCRQEKLSHEKLRFSGVEKSFCSEGCVLLYKQDF, the abundance fitness is -0.542 ± 0.16. In the case of LSCHYCHSLFSGKPEVLDWQDQVFQFCCRDCCEDFKRLRGVVSQCEHCRQEKLLHEKLRFSGVEKSFCAEGCVLLYKQDF it was -0.023 ± 0.16; in that of LSCHYCHSLPSGKPEVLDWQDQVFQFCCRDCCEDFKRLRGVVSQCEHCRQEKLLHEKLRFSGVEKSFCSEGCVLLYKQDF, -0.052 ± 0.048; in that of LSCHYCHSLFSGKPEVLDWQDQVFQFCCRDCCEDFLRLRGVVSQCEHCRQEKLLHEKLRFSGVEKSFCSEGCVLLYKQDF, -0.101 ± 0.041. In the case of LSCHYCHSLFSGKPEVLDWQDQVFQFCCRDCCEDFKRLRGVVSQCEHCRQEKLLHEKLRFSGVEKSFCSEGCELLYKQDF, the abundance fitness was -0.027 ± 0.17. In the case of LSCHYCHSLFSGKPEVLDWQDQVFQMCCRDCCEDFKRLRGVVSQCEHCRQEKLLHEKLRFSGVEKSFCSEGCVLLYKQDF it was 0.134 ± 0.051; in that of LSCHYCHSLFSGKPEVLDWQDQVKQFCCRDCCEDFKRLRGVVSQCEHCRQEKLLHEKLRFSGVEKSFCSEGCVLLYKQDF, 0.084 ± 0.045; in that of LSCHYCHSLFSGKPEVLDWQDQVFQFCCRDCCEDFKRLRGVVSQCEHTRQEKLLHEKLRFSGVEKSFCSEGCVLLYKQDF, -1.05 ± 0.46. In the case of LSCHYCHSLFSGKPEVLDWQDQVFQFCCRDCCEDFKRLRGVVSQCEHCRQEKLLHEKLRFSGVEKSFCSEVCVLLYKQDF it was -0.043 ± 0.11; in that of LSCHYCHSLFSGKPEVLDWQDQVFQFCCRDCCEDFKRLRGVVSQCEHCRTEKLLHEKLRFSGVEKSFCSEGCVLLYKQDF, -0.293 ± 0.3; in that of LSCHYCHSLFSGKPEVLDWQDQVFQFCCRDCCEDFKRLRGVVSQCEHCRGEKLLHEKLRFSGVEKSFCSEGCVLLYKQDF, -0.436 ± 0.094.

For LSCHYCHSLFSGKPEVLDWQDQVFQFCCRDCCEDFKRLRGVVSQCEHCRQEKLLHEKLRFSGVEKSFCSEGCVILYKQDF, the abundance fitness is -0.381 ± 0.35.

On to LSCHYCHSLFSGKPEVLDWQDQVFQFCCRDCCEDFKRLRGVVSQCEHCRQEKLLHEKLRPSGVEKSFCSEGCVLLYKQDF, for which the abundance fitness is 0.113 ± 0.13. In the case of LSCHYCHSLFSGKPEVLDWQDQVFQFCCRDCCEDFKRLRGVVSQCEHCRQEKLLHEWLRFSGVEKSFCSEGCVLLYKQDF it was -0.756 ± 0.2; in that of LSCHYCHSLFSGKPEVLDWQDQVFQFCCRDCCEDFKRLRGVVSQCEHCRQEKLLHENLRFSGVEKSFCSEGCVLLYKQDF, -0.237 ± 0.23; in that of LSCHECHSLFSGKPEVLDWQDQVFQFCCRDCCEDFKRLRGVVSQCEHCRQEKLLHEKLRFSGVEKSFCSEGCVLLYKQDF, -0.081 ± 0.051.

For LSCHYCHSLFSGKPEVLDWQDQVFQFCCDDCCEDFKRLRGVVSQCEHCRQEKLLHEKLRFSGVEKSFCSEGCVLLYKQDF, the abundance fitness amounted to 0.082 ± 0.053. In the case of LSCHYCHSLFSGKPEVLDWQDQVFQFCCRDCCEDFKRLRGVVSQCEHCRQRKLLHEKLRFSGVEKSFCSEGCVLLYKQDF it was -0.198 ± 0.084; in that of LSCHYCHSLFSGKPEVLDWQDQVFQFCCRDCCEDFKRLRGVVSQCEHCRQEKNLHEKLRFSGVEKSFCSEGCVLLYKQDF, -0.163 ± 0.45. Consider LSCHYCHSLFSGKPEVLDWGDQVFQFCCRDCCEDFKRLRGVVSQCEHCRQEKLLHEKLRFSGVEKSFCSEGCVLLYKQDF, for which the abundance fitness was 0.334 ± 0.043. To LSCHYCHSLFSGKPHVLDWQDQVFQFCCRDCCEDFKRLRGVVSQCEHCRQEKLLHEKLRFSGVEKSFCSEGCVLLYKQDF belongs -0.017 ± 0.082; to LSCHYCHSLFSGKPGVLDWQDQVFQFCCRDCCEDFKRLRGVVSQCEHCRQEKLLHEKLRFSGVEKSFCSEGCVLLYKQDF, -0.56 ± 0.082.
